The target in test [1] is splitGFP(1-10). Description: cell-based or functional assay.
Test [2] addresses splitGFP(1-10). The test is described as follows: in vitro splitGFP complementation, fluorescence; reference pAbBD-S11.

For the substance Ritux-(pAbBD-S11)2 (antibody), in the test with splitGFP(1-10) [1], the fold-increase in median splitGFP fluorescence, flow cytometry 6 hours after electroporation into HEK293T splitGFP(1-10) cells came to 39.4 fold. In the test with splitGFP(1-10) [2], the fluorescence relative to pAbBD-S11 turned out to be 2 fold.

In the case of pAbBD-S11, in the test with splitGFP(1-10) [1], the fold-increase in median splitGFP fluorescence, flow cytometry 6 hours after electroporation into HEK293T splitGFP(1-10) cells was 33.5 fold.
